Data from article PMC4764562, “The Sec7 N-terminal regulatory domains facilitate membrane-proximal activation of the Arf1 GTPase” (eLife, 2016).

T1: GST-Arf1 (Saccharomyces cerevisiae (strain ATCC …, UniProt P11076))
T1 chain: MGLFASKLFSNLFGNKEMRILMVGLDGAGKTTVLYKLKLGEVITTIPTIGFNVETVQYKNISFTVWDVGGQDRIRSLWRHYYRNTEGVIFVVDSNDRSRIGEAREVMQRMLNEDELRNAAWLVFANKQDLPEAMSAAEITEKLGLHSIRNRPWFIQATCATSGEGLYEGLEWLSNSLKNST

B1: S. cerevisiae Sec7f (residues 203-2009) (domain or fragment, UniProt P11075 203-2009, looked up)
chain: PRSTHTRNISLSSNGSNTNSTIILVKTTLETILNDKDIKKNSNAQKAIERTLQKFKEFDPQTTNNPHYVDSILVFEALRASCRTKSSKVQSLALDCLSKLFSFRSLDETLLVNPPDSLASNDQRQDAADGITPPPKQKIIDAAIDTISDCFQGEGTDDRVELQIVRALSSCILEEDSSSLCHGASLLKAIRTIYNVFVFSLNPSNQGIAQATLTQIISSVYDKIDLKQSTSSAVSLSTKNHQQQSAIELSEASENAETPAPLTLENMDKLNDDEERLMDAQQPDSIAITNQDLAVKDAFLVFRVMAKICAKPLETELDMRSHAVRSKLLSLHIIYSIIKDHIDVFLSHNIFLPGKERVCFIDSIRQYLRLVLSRNAASPLAPVFEVTLEIMWLLIANLRADFVKEIPVFLTEIYFPISELTTSTSQQKRYFLSVIQRICNDPRTLVEFYLNYDCNPGMPNVMEITVDYLTRLALTRVEITQTQRSYYDEQISKSLSTYNFSQLPLLTSSNLSSSPDVGQVNLLFPLDFALKMVSLNCIVSVLRSLSSWAHKALNPNTHTANKVLLNTTSSARQESRSSLSNDVRSSIMTSNDDFKPTYEDEESRSLSSQNIDADDPTQFENLKLRKTALSECIAIFNNKPKKAIPVLIKKGFLKDDSPISIAKWLLETEGLDMAAVGDYLGEGDDKNIAIMHAFVDEFDFTGMSIVDALRSFLQSFRLPGEGQKIDRFMLKFAERFVDQNPGVFSKADTAYVLSYSLIMLNTDLHSSQIKNKMSLQEFLENNEGIDNGRDLPRDFLEGLFNEIANNEIKLISEQHQAMLSGDTNLVQQQQSAFNFFNSRDLTREAYNQVSKEISSKTELVFKNLNKNKGGPDVYYAASHVEHVKSIFETLWMSFLAALTPPFKDYDDIDTTNKCLEGLKISIKIASTFRINDARTSFVGALVQFCNLQNLEEIKVKNVNAMVILLEVALSEGNYLEGSWKDILLVVSQMERLQLISKGIDRDTVPDVAQARVANPRVSYESSRSNNTSFFDVWGKKATPTELAQEKHHNQTLSPEISKFISSSELVVLMDNIFTKSSELSGNAIVDFIKALTAVSLEEIESSENASTPRMFSLQKMVDVCYYNMDRIKLEWTPLWAVMGKAFNKIATNSNLAVVFFAIDSLRQLSMRFLDIEELSGFEFQHDFLKPFEYTVQNSGNTEVQEMIIECFRNFILTKSESIKSGWKPILESLQYTARSSTESIVLKTQLLVSNDIVTNHFENVFSQEDAFSELVGVFREITKNKRFQKLSLHALESLRKMTQNVADICFYNENKTEEERKHNDALLRGKDIFQDVWFPMLFCFNDTIMTAEDLEVRSRALNYMFDALVAYGGKFNDDFWEKICKKLLFPIFGVLSKHWEVNQFNSHDDLSVWLSTTLIQALRNLIALFTHYFESLNRMLDGFLGLLVSCICQENDTIARIGRSCLQQLILQNVSKFNEYHWNQIGDVFDKLFDLTTANELFDYDPLQQGRKSSVSHHQTTNDTSQHSDDDSNDRRENDSNISETVERAHQEESSEDVGGDMVETLNGQTKLNNGNSVPTVKDELNPKPASLSIPKKTKHMKRNESNEDIRRRINIKNSIVVKCVLQLLMIELLNELFENEDFAHCIPYKEAIRITRLLEKSYEFSRDFNEDYGLRTRLVEARVVDKIPNLLKQETSAAAVLLDIMFQLYLNDDEKKADLITRLITICIQVVEGYVSLDDRTMERSINAWRSVIVEILQGYYEFDDEDFRLYCPAMYALVIQILDKSVPTELRHAIKQFLSRVGELYLSTD
notes: Sec7 (Arf-GEF) of S. cerevisiae, residues 203-2009; source: E. coli, purified (Ni-NTA, MonoQ, Superdex 200)
B2: S. cerevisiae Sec7ΔC (residues 203-1017) (domain or fragment, UniProt P11075 203-1017, looked up)
chain: PRSTHTRNISLSSNGSNTNSTIILVKTTLETILNDKDIKKNSNAQKAIERTLQKFKEFDPQTTNNPHYVDSILVFEALRASCRTKSSKVQSLALDCLSKLFSFRSLDETLLVNPPDSLASNDQRQDAADGITPPPKQKIIDAAIDTISDCFQGEGTDDRVELQIVRALSSCILEEDSSSLCHGASLLKAIRTIYNVFVFSLNPSNQGIAQATLTQIISSVYDKIDLKQSTSSAVSLSTKNHQQQSAIELSEASENAETPAPLTLENMDKLNDDEERLMDAQQPDSIAITNQDLAVKDAFLVFRVMAKICAKPLETELDMRSHAVRSKLLSLHIIYSIIKDHIDVFLSHNIFLPGKERVCFIDSIRQYLRLVLSRNAASPLAPVFEVTLEIMWLLIANLRADFVKEIPVFLTEIYFPISELTTSTSQQKRYFLSVIQRICNDPRTLVEFYLNYDCNPGMPNVMEITVDYLTRLALTRVEITQTQRSYYDEQISKSLSTYNFSQLPLLTSSNLSSSPDVGQVNLLFPLDFALKMVSLNCIVSVLRSLSSWAHKALNPNTHTANKVLLNTTSSARQESRSSLSNDVRSSIMTSNDDFKPTYEDEESRSLSSQNIDADDPTQFENLKLRKTALSECIAIFNNKPKKAIPVLIKKGFLKDDSPISIAKWLLETEGLDMAAVGDYLGEGDDKNIAIMHAFVDEFDFTGMSIVDALRSFLQSFRLPGEGQKIDRFMLKFAERFVDQNPGVFSKADTAYVLSYSLIMLNTDLHSSQIKNKMSLQEFLENNEGIDNGRDLPRDFLEGLFNEIANNEIKLISEQH
notes: Sec7 of S. cerevisiae, residues 203-1017 (DCB/HUS and GEF domains); also called Sec7(203-1017); construct lacking the HDS1-4 domains with the GEF domain; source: E. coli, purified (Ni-NTA, MonoQ, Superdex 200)
B3: S. cerevisiae Sec7 DCB/HUS domain construct (domain or fragment)
chain: PRSTHTRNISLSSNGSNTNSTIILVKTTLETILNDKDIKKNSNAQKAIERTLQKFKEFDPQTTNNPHYVDSILVFEALRASCRTKSSKVQSLALDCLSKLFSFRSLDETLLVNPPDSLASNDQRQDAADGITPPPKQKIIDAAIDTISDCFQGEGTDDRVELQIVRALSSCILEEDSSSLCHGASLLKAIRTIYNVFVFSLNPSNQGIAQATLTQIISSVYDKIDLKQSTSSAVSLSTKNHQQQSAIELSEASENAETPAPLTLENMDKLNDDEERLMDAQQPDSIAITNQDLAVKDAFLVFRVMAKICAKPLETELDMRSHAVRSKLLSLHIIYSIIKDHIDVFLSHNIFLPGKERVCFIDSIRQYLRLVLSRNAASPLAPVFEVTLEIMWLLIANLRADFVKEIPVFLTEIYFPISELTTSTSQQKRYFLSVIQRICNDPRTLVEFYLNYDCNPGMPNVMEITVDYLTRLALTRVEITQTQRSYYDEQISKSLSTYNFSQLPLLTSSNLSSSPDVGQVNLLFPLDFALKMVSLNCIVSVLRSLSSWAHKALNPNTHTANKVLLNTTSSARQESRSSLSNDVRSSIMTSNDDFKPTYEDEESRSLSSQNIDADDPTQFEN
B4: S. cerevisiae Gea2 full-length (natural protein, UniProt P39993 1-1459, looked up)
chain: MSDREFVTVDPVTIIIKECINLSTAMRKYSKFTSQSGVAALLGGGSEIFSNQDDYLAHTFNNLNTNKHNDPFLSGFIQLRLMLNKLKNLDNIDSLTILQPFLLIVSTSSISGYITSLALDSLQKFFTLNIINESSQNYIGAHRATVNALTHCRFEGSQQLSDDSVLLKVVFLLRSIVDSPYGDLLSNSIIYDVLQTILSLACNNRRSEVLRNAAQSTMIAVTVKIFSKLKTIEPVNVNQIYINDESYTNDVLKADTIGTNVESKEEGSQEDPIGMKVNNEEAISEDDGIEEEHIHSEKSTNGAEQLDIVQKTTRSNSRIQAYADDNYGLPVVRQYLNLLLSLIAPENELKHSYSTRIFGLELIQTALEISGDRLQLYPRLFTLISDPIFKSILFIIQNTTKLSLLQATLQLFTTLVVILGNNLQLQIELTLTRIFSILLDDGTANNSSSENKNKPSIIKELLIEQISILWTRSPSFFTSTFINFDCNLDRADVSINFLKALTKLALPESALTTTESVPPICLEGLVSLVDDMFDHMKDIDREEFGRQKNEMEILKKRDRKTEFIECTNAFNEKPKKGIPMLIEKGFIASDSDKDIAEFLFNNNNRMNKKTIGLLLCHPDKVSLLNEYIRLFDFSGLRVDEAIRILLTKFRLPGESQQIERIIEAFSSAYCENQDYDPSKISDNAEDDISTVQPDADSVFILSYSIIMLNTDLHNPQVKEHMSFEDYSGNLKGCCNHKDFPFWYLDRIYCSIRDKEIVMPEEHHGNEKWFEDAWNNLISSTTVITEIKKDTQSVMDKLTPLELLNFDRAIFKQVGPSIVSTLFNIYVVASDDHISTRMITSLDKCSYISAFFDFKDLFNDILNSIAKGTTLINSSHDDELSTLAFEYGPMPLVQIKFEDTNTEIPVSTDAVRFGRSFKGQLNTVVFFRIIRRNKDPKIFSKELWLNIVNIILTLYEDLILSPDIFPDLQKRLKLSNLPKPSPEISINKSKESKGLLSTFASYLKGDEEPTEEEIKSSKKAMECIKSSNIAASVFGNESNITADLIKTLLDSAKTEKNADNSRYFEAELLFIIELTIALFLFCKEEKELGKFILQKVFQLSHTKGLTKRTVRRMLTYKILLISLCADQTEYLSKLINDELLKKGDIFTQKFFATNQGKEFLKRLFSLTESEFYRGFLLGNENFWKFLRKVTAMKEQSESIFEYLNESIKTDSNILTNENFMWVLGLLDEISSMGAVGNHWEIEYKKLTESGHKIDKENPYKKSIELSLKSIQLTSHLLEDNNDLRKNEIFAIIQALAHQCINPCKQISEFAVVTLEQTLINKIEIPTNEMESVEELIEGGLLPLLNSSETQEDQKILISSILTIISNVYLHYLKLGKTSNETFLKILSIFNKFVEDSDIEKKLQQLILDKKSIEKGNGSSSHGSAHEQTPESNDVEIEATAPIDDNTDDDNKPKLSDVEKD
notes: Gea2, early-Golgi Arf-GEF of S. cerevisiae, full length

Key:
[1] = target: construct corresponding to a predicted coiled-coil from the HDS4 domain of Sec7; assay: SEC-MALS; 5 mg/ml, Wyatt WTC-050S5 gel filtration column with DAWN HELEOS-II and Optilab T-rEX detectors, room temperature; measured mass compared with that predicted from the sequence
[2] = target: full-length T. terrestris Sec7 (T. terrestris); assay: as above
[3] = target: the molecule itself; assay: as above
GST-Arf1 = target: T1, GST-Arf1; assay: GST pulldown (also liposome pelleting); Arf1 loaded with GMPPNP or GDP; no stable nucleotide-dependent interaction seen (Arf1 is nevertheless a GEF substrate of Sec7ΔC)

Molecule | stoichiometry N [3] | also measured
construct corresponding to a predicted coiled-coil from the HDS4 domain of Sec7 (domain or fragment) | – | stoichiometry N [1]: 2
full-length T. terrestris Sec7 (natural protein) | – | stoichiometry N [2]: 2
B1 | 2 | –
B2 | 2 | binding result (GST-Arf1): no binding
B3 | 2 | –
B4 | 2 | –
